# Assay results: patent US20120253008A1 (Ablynx, published 2012)
# Target: T1, human serum albumin (human, UniProt P02768 25-609)
# T1 construct: also called HSA
# Assay: phage ELISA and/or solution binding competition ELISA on HSA
row,Binder,binding result
1,AATYYDYDVFGGGTPLGQ [PMP56D5],binds
2,AAAYWDYDVFGGGTSAGT [PMP54H2],binds
3,AARYYDYDVFGGGTRSGE [PMP54C1],binds
4,AAIYRDYDVFGGGTPLGQ [PMP54G2],binds
5,AAWYRDYDVFGGGTDEGS [PMP54B1],binds
6,AADYYDYDVFGGGTSVGE [PMP56A1],binds
7,AATYLDYDVFGGGTPDGR [PMP54E3],binds
8,AAYYRDYDVFGGGTPVGE [PMP56A5],binds
9,AASYLDYDVFGGGTPFGE [PMP54H1],binds
10,AAFYMDYDVFGGGTPRGQ [PMP56A4],binds
11,AAMYYDYDVFGGGTPTGA [PMP56C5],binds
12,AALYRDYDVFAGGTPGGG [PMP54E2],binds
13,AAWYFDYDVFGGGTADGE [PMP56H6],binds
14,AAYYYDYDVFGGGTPGGE [PMP56E1],binds
15,AARYWDYDVFGGGTPQGE [PMP56B1],binds
16,AALYRDYDVFGGGTQVGE [PMP54G3 (SEQ ID NO: 49)],binds

row,Binder,binding result
1,AAVYDDYDVFGGGTPVGG [PMP56B3],binds
2,AALYRDYDVFGGGTPVGG [PMP56F6],binds
3,AAWYFDYDVFGGGTADGE [PMP56F3],binds
4,AAFYWDYDVFGGGTDPGA [PMP56G3],binds
5,AARYYDYDVFGGGTPLGG [PMP56E6],binds
6,AARYYDYDVFGGGTPLGA [PMP56E5],binds
7,AARYYDYDVFGGGTPLGA [PMP56C3],binds
8,AARYYDYDVFGGGTPLGA [PMP56E3],binds
9,AARYPDYDVFGGGTPSGG [PMP56C6],binds
10,AARYPDYDVFGGGTPVGG [PMP54C2],binds
11,AARYYDYDVFGGGTAGGQ [PMP56A6],binds
12,AAVYWDYDVFGGGTSLGD [PMP56B6],binds
13,AARYFDYDVFGGGTDLGD [PMP54D2],binds
14,AARYLDYDVFGGGTPIGE [PMP54C3],binds
15,AARYYDYDVFGGGTPLGG [PMP56F5],binds

# Next, values leading:
row,binding result,Binder
1,binds,AARYWDYDVFGGGTPQGE [PMP56C2]
2,binds,AARYYDYDVFGGGTVVGE [PMP54B2]
3,binds,AAYYYDYDVFGGGTPGGE [PMP54G3 (SEQ ID NO: 44)]
4,binds,AARYLDYDVFGGGTDVGS [PMP54F3]
5,binds,AATYFDYDVFGGGTAVGS [PMP54G1]
6,binds,AAYYFDYDVFGGGTPEGT [PMP56C1]
7,binds,AARYYDYDVFGGGTPLGG [PMP56G6]
8,binds,AAWYRDYDVFGGGTPLGA [PMP56H1]
9,binds,AALYGDYDVFGGGTPLGE [PMP54F2]
10,binds,AARYLDYDVFGGGTQLGS [PMP54D3]
11,binds,AAWYTDYDVFGGGTPQGG [PMP56F1]
12,binds,AARYFDYDVFGGGTPAGD [PMP56B2]
13,binds,AALYRDYDVFGGGTPVGG [PMP56B5]
14,binds,AAFYWDYDVFGGGTDPGA [PMP56H3]
15,binds,AAYYFDYDVFGGGTPEGT [PMP56G1]
16,binds,AAAYLDYDVFGGGTPVGG [PMP56G5]
17,binds,AASYRDYDVFGGGTPRGW [PMP54H3]
18,binds,AAFYRDYDVFGGGTGSGN [PMP54E1]
19,binds,AALYKDYDVFGGGTPGGE [PMP56D4]
20,binds,AARYWDYDVFGGGTDPGG [PMP56G2]
21,binds,AAPYHDYDVFGGGTPVGE [PMP56A2]

# Target: T1, human serum albumin
# Assay: phage ELISA, phage titration on coated HSA, near-infrared fluorescence
# Method: 5-fold serial dilutions of phage clones (starting from ˜5×10¹¹ phage) were added to 96-well Nunc Maxisorp plates coated with human serum albumin (2 μg/ml in PBS, overnight at 4° C.; plates were blocked with Superblock T20 (Pierce) for 1 h at room temperature). […] The amount of IRDye bound was measured on Odyssey (LI-COR Biosciences). The dilution of phage was plotted against measured near-infrared fluorescence intensity (FIG. 2).
# After respectively three and four selection rounds, monoclonal phage were screened for binding on HSA, in the manner described in Example 2. Clones that bind to HSA (FIGS. 7A to 7C and Table V) were screened in phage competition ELISA, in the manner described in Example 5. The ratio of phage binding was calculated by the following equation: fluorescence signal of well with 2 μM competitor/fluorescence signal of well with no competitor (Table VI).
row,Binder,binding result
1,AARWWDYDVFGGGTPVGG [59A5],binds
2,AARYWDFDVFGGGSPVGG [59H10],binds
3,AARYWDYDVFGGGTPVDG [60E6],binds
4,AARFWDYDVFGGGTPVGG [59B2],binds

# Now from value to binder:
row,binding result,Binder
1,binds,AARYWDFDAFGGGTPVGG [59B3]
2,binds,AARYWDWDVFGGGTPVGG [59C8]
3,binds,AARYWDYDVFGGGSPVGG [60G5]
4,binds,AARYWDYDVFGGGSQVGG [60F1]
